Results on one substance are retold here after patent US20160368957A1.

The test deals with recombinant human IL-17A (human) (UniProt Q16552). Briefly: cell-based or functional assay.
recombinant human IL-17A (human), sequence (Q16552 20-155 limits assumed): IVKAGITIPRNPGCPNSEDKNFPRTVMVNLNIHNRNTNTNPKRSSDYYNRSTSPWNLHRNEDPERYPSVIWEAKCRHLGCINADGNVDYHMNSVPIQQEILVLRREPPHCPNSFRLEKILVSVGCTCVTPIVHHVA

As for “human IL-17A receptor-Fc chimera (R&D Systems) (from UniProt Q96F46 33-320) (Fc fusion)”, the IC50 of inhibition of IL-17A induced IL-6 production in NHDF cells (IL-17A 50 ng/ml) was 1 nM; the IC50 value (nM), IL-6 production by NHDF cells with IL-17A (1 ng/ml) and TNF alpha came to 0.61 nM.
